Test results: US20190016771A1 (Hoffmann-La Roche, published 2019)

Legend:
[1] = molecular target: T1, human OX40 (CD134) on the cell surface (human, UniProt P43489 29-277); experiment: flow cytometry on activated human CD4+ T cells (OX40 positive); activated OX40 positive CD4+ T cells
T1 construct: whole, on cells; also called hOx40
T1 sequence (looked up): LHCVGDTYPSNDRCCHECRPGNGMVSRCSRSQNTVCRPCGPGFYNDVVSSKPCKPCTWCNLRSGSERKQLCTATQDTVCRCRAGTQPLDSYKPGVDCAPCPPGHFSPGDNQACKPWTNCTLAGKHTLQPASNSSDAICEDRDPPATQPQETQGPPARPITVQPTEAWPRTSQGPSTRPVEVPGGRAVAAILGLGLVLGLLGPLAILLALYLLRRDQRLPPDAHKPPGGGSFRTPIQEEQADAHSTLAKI
Procedure: (§1) PBMCs were used directly after isolation (binding on resting human PBMCs) or they were stimulated to receive a strong human Ox40 expression on the cell surface of T cells (binding on activated human PBMCs). Therefore naïve PBMCs were cultured for three days in T cell medium supplied with 200 U/mL Proleukin (Novartis) and […] PHA-L (Sigma-Aldrich, L2769-10) in 6-well tissue culture plate at 37° C. and 5% CO₂.
(§2) Cells were stained for 120 minutes at 4° C. in the dark in 50 μL/well 4° C. cold FACS buffer containing titrated anti-Ox40 antibody constructs. After three times washing with excess FACS buffer, cells were stained for 1 h at 4° C. in the dark in 25 μL/well 4° C. cold FACS buffer containing a mixture of fluorescently labeled anti-human CD4 (clone OKT4, mouse IgG1 k, BioLegend, Cat.-No. 317428), anti-human CD8 (clone RPa-T8, mouse IgG1k, BD Pharmingen, Cat.-No. 555368) and Fluorescein isothiocyanate (FITC)-conjugated AffiniPure anti-human IgG F(ab′)2-fragment-specific goat IgG F(ab′)₂ fragment (Jackson ImmunoResearch, Cat.-No. 109-096-097). Plates were finally resuspended in 90 μL/well FACS-buffer containing 0.2 μg/mL DAPI (Santa Cruz Biotec, Cat. No. Sc-3598) and acquired the same day using 5-laser LSR-Fortessa (BD Bioscience with DIVA software).

[2] = molecular target: T1, human OX40 (CD134) on the cell surface; experiment: flow cytometry on activated human CD8+ T cells (OX40 positive); activated OX40 positive CD8+ T cells
Procedure: as §1, §2

[3] = molecular target: T2, human fibroblast activation protein (FAP) on the cell surface (human, UniProt Q12884 1-760); experiment: flow cytometry on WM-266-4 cells, FITC anti-human IgG F(ab')2 detection
T2 construct: also called huFAP; NIH/3T3-huFAP clone 39 cells
T2 sequence: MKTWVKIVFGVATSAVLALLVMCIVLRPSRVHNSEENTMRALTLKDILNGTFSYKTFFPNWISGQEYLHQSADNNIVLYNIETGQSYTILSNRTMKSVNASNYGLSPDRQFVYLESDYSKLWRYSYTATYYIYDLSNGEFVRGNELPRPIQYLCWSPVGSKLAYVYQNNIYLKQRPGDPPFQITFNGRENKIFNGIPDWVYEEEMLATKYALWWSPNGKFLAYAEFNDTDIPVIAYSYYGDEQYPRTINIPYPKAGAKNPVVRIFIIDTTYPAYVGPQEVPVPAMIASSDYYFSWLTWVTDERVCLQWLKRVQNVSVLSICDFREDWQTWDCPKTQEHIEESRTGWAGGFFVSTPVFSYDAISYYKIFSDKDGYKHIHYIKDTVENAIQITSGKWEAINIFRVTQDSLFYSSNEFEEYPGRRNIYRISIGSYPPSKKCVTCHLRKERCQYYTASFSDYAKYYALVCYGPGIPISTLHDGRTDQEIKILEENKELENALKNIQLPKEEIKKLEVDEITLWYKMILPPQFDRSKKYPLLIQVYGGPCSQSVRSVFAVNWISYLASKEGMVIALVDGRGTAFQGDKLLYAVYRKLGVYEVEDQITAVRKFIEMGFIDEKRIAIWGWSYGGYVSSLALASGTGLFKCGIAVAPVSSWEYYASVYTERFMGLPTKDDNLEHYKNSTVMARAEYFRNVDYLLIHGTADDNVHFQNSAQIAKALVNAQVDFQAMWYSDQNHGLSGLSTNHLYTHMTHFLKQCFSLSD
Procedure: Cells were stained for 120 minutes at 4° C. in the dark in 50 μL/well 4° C. cold FACS buffer (DPBS (Gibco by Life Technologies, Cat. No. 14190 326) w/ BSA (0.1% v/w, Sigma-Aldrich, Cat. No. A9418) containing titrated huCMP trimeric OX40 ligand-containing antigen binding molecules. After three times washing with excess FACS buffer, cells were stained for 60 minutes at 4° C. in the dark in 25 μL/well 4° C. cold FACS buffer containing Fluorescein isothiocyanate (FITC)-conjugated AffiniPure anti-human IgG F(ab′)₂-fragment-specific goat IgG F(ab′)₂ fragment (Jackson ImmunoResearch, Cat.-No. 109-096-097).
Plates were finally resuspended in 90 μL/well FACS-buffer containing 0.2 μg/mL DAPI (Santa Cruz Biotec, Cat. No. Sc-3598) and acquired the same day using 5-laser LSR-Fortessa (BD Bioscience with DIVA software).

- EC50 [1]: 10.2 nM
- EC50 [2]: 3 nM
- EC50 [3]: 17.3 nM
B1: FAP(28H1)-targeted human CMP trimeric OX40L-containing antigen binding molecule (other)
chain: EVQLLESGGGLVQPGGSLRLSCAASGFTFSSHAMSWVRQAPGKGLEWVSAIWASGEQYYADSVKGRFTISRDNSKNTLYLQMNSLRAEDTAVYYCAKGWLGNFDYWGQGTLVTVSSASTKGPSVFPLAPSSKSTSGGTAALGCLVKDYFPEPVTVSWNSGALTSGVHTFPAVLQSSGLYSLSSVVTVPSSSLGTQTYICNVNHKPSNTKVDKKVEPKSCDGGGGSGGGGSEEDPCACESLVKFQAKVEGLLQALTRKLEAVSKRLAILENTVVSGGGGSGGGGSGGGGSGGGGSQVSHRYPRIQSIKVQFTEYKKEKGFILTSQKEDEIMKVQDNSVIINCDGFYLISLKGYFSQEVDISLHYQKDEEPLFQLKKVRSVNSLMVASLTYKDKVYLNVTTDNTSLDDFHVNGGELILIHQNPGEFCVL
light: EIVLTQSPGTLSLSPGERATLSCRASQSVSRSYLAWYQQKPGQAPRLLIIGASTRATGIPDRFSGSGSGTDFTLTISRLEPEDFAVYYCQQGQVIPPTFGQGTKVEIKRTVAAPSVFIFPPSDEQLKSGTASVVCLLNNFYPREAKVQWKVDNALQSGNSQESVTEQDSKDSTYSLSSTLTLSKADYEKHKVYACEVTHQGLSSPVTKSFNRGEC
notes: also called trimeric FAP-huCMP-OX40L
